# Experiment: soluble on expression in E. coli; label from the status in PepcDB or PDB records
row,Sequence,soluble on expression in E. coli
1,MSLYPGQFAKTRPDHPAFIMASTGETVSYAELEARSNRLAHLLRNHGLQRLDHYSIFMENNNRYIEACAAGERSGYYYTCVNSYLTPAELAYILTNSESRALITSKAKLDVAREALKDCPNVTLCVVVDGDGESERIVGLAEATKNLPDTPIADESLGTAMLYSSGTTGRPKGILRPLPEQPPSEPLPLFHFLNMLWKYRDGMIYLSPAPLYHSAPQAAVGLTIRDGGTVIIMEHFDPEQYLALIGKHKVTHSQLVPTMFSRMLKLPEEARKTYDLSTLEVAIHAAAPCPPQVKEQMIEWWGPIIHEYYGATEGLGFTACNSAEWLAHRGTVGKVMFGDLHILDDGMKPCPKGTPGQIWFKTATPFEYFNDPKKTQEARSEDGSMSTVGDVGYVDDDGYLHLTDRATFMIISGGVNIYPQECENLLITHPKVADAAVFGVPNEDLGEEVKAVVQPMPGVAAGADLAAELIAFCAQSLSRQKVPRSIDFMDELPRLPTGKLYKRLLRDRYWGNKNSREGHHHHHH,soluble
2,MSLYQAIVFFDLDSTLFDDNKHVLPASVAAIHEMQQHHILPVIATGRNIFEIQYVLDGTGIDSVVGANGSYVQYQGQRLAAAVIAPELLTAVTSFAQRQHDPIAYYTSQGFRLSQANADTTENFQLLRLHPIVDPAWYATHQINFLNVFNRDHDQLYQEKFSGQLTFVRNNPRCLDTMVNGVTKQSGIRTLIQQAGLQGIKTYAFGDGYNDLQMFDEVDVPISMGNGVAAAKEKAAYVTTTNTTDGIVRGLRHFGLIQEGHHHHHH,soluble
3,MSLYSNESAIQLISLARSIDQLQKIDSVVSFHDGAQLDALTIANALELPFSLSMGAIVNTRDKQLSRRILREKNLTEVQSAIAENEQDLHDFFKIYPQVNKVIVKPVAGTGSENVRSLESKELETANLDNVYPVLVEQFVEGREFSVEAFMQEGKCHIFAITEKFKDAQSFIETGHLVPARLSSDEHEKIAAFIAKVLPALGVVSGITHSEIMLGEKIELIETHTRVGGDRIFDLVQMTTGIDMYRLQALQSLGLPIGEDELTPKLNGKHACIKFKLNDHPGKKVIRVNGEEEIKNWSGVEDVSITHQAGEVLPQIVNSFDRSASVLVLCDSSEQALSIAEEAIQKLEFVVGEGHHHHHH,not soluble
4,MSMLKIGDIVTRKSHGQDIYFIVTDIQNKDSSKPVYILRGLFYRIIVDAFEDDLVKKDSRSTRINLRRDLTMARSNAYRQIFTSRCFLFSKPRQRPGKVLHIDSSESFLKMCRNLYKEAGITSREYLAPESEQPNIIKRALAETKPDILVVTGHDSLKKGSDPNLLDSYRNSKYFIECVKEARKYQPDYDKLCIFAGACQSYFEAIMQAGANFASSPGRININALDPAIVSEKVALTNKDNYVTPEEVSKLTISGSKGIGGIKTRGHLTVL,soluble
5,MSNDIEKSIQQWLEKKLEERGHGAQIELAAYLGIHPSTISRMLNPYKNGKSRSISIGELVKIAEFFKVSPPQISSLMLIKNS,not soluble
6,MSNFMVENQTEQVSIFLEDAINLITNYVNYHTLPSLLEETPAGNERYYKGLLASMRRLLVFCEEGQDACFVLLNSQPFRKTAAEKILYKIYHQVIAEFFSPKSDHWYENSRSAYTGKNSIVFQQTPPASLEQVMKSLEGKFQLMREELEYYETDYQTKMLHKY,not soluble
7,MSNIITDYSQYNEKQLHNFLNSIEKQLLKAERDKNKAIKKIQECELQERMIRQVLAQKHSQEKEPTPSLLNTIASKDDPEYDVSFGDFNDFLQIAKQERERHNA,not soluble
8,MSNKIVTLEINLEPSDNRRLASLCGPFDDNIKHLERRLGVEINHRSDHFTIVGKPHTSAAALDILKTLYVDTAPVRGEIPDIEPEQIHLAIKESGVLEQNTESSIAHGKEVFVKTKKGVIKPRTPNQAQYLVNMVTHDISFGIGPAGTGKTYLAVAAAVDALERQEIRRILLTRPAVEAGEKLGFLPGDLSQKVDPYLRPLYDALFEMLGFERVEKLIERNVIEVAPLAYMRGRTLNDAFIILDESQNTTVEQMKMFLTRIGFNSRAVITGDVTQIDLPRGAKSGLRHAIEVLSEVDDISFNFFQADDVVRHPVVARIVNAYEKWEAQDQKERKEFEKRRREERDAKLLEAAKAELSAQVAATKE,not soluble
9,MSNPYPKQEVTLMLHTANPVIKHKAGLLNLAEELSNVSKACKIMGVSRDTFYRYRELVAEGGVDAQINRSRRAPNLKNRTDEATEQAVVDYAVAFPTHGQHRASNELRKQGVFISDSGVRSVWLLHNLENLKRRYLEHHHHHH,not soluble

# Source: the DeepSol protein solubility set
